Test results taken from patent US20040146507A1 (Genentech, published 2004).
Substitutions are numbered along the chain they refer to. Values joined by “and” are separate entries in the source; they are usually repeats but may differ in a detail not shown here. Equal entries are not always repeated.

Assays:
[1] = target: T1, rhesus CD11a (rhesus, UniProt H9Z8N3 26-1169); experiment: binding to rhesus CD11a compared with human CD11a
T1 construct: whole, on cells; On rhesus peripheral blood lymphocytes or leukocytes; also called rhCD11a
T1 sequence: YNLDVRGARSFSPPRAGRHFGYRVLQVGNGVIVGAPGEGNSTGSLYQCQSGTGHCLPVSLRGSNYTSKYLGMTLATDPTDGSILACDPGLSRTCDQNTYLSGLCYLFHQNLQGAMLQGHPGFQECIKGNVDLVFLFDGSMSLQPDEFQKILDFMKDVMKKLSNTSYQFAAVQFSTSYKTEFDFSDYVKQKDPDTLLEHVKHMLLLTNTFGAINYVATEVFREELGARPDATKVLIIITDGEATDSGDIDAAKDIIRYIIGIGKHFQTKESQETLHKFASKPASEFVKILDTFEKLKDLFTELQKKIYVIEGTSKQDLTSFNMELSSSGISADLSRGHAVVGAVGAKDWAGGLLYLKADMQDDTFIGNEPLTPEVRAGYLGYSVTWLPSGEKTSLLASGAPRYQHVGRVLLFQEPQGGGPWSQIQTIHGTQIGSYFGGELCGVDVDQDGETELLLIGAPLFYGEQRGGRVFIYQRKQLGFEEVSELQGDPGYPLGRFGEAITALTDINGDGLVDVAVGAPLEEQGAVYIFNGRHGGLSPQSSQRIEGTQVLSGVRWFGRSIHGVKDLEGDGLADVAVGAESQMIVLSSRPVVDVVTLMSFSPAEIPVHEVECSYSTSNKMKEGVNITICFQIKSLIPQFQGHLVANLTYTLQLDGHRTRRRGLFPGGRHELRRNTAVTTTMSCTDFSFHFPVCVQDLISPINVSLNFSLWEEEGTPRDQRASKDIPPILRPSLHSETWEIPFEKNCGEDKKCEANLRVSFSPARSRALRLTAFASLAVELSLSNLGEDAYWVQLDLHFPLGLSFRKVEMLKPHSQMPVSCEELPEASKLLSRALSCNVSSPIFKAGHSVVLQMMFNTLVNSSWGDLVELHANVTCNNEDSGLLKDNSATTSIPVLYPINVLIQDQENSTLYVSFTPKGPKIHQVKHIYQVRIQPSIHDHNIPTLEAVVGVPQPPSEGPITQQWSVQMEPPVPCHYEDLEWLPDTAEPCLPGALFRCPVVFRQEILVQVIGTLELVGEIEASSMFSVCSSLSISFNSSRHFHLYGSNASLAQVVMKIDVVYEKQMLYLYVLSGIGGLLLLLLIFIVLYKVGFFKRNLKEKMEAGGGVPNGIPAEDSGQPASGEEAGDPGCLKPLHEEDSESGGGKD

[2] = target: T1, rhesus CD11a; experiment: rhesus PBL binding
[3] = target: T1, rhesus CD11a; experiment: binding to rhesus peripheral blood lymphocytes
[4] = target: T2, human CD11a (human, UniProt P20701 26-1170); experiment: FACScan, Jurkat cells
T2 construct: whole, on cells; On Jurkat T-cells or human peripheral blood mononuclear cells, as part of LFA-1; also called CD11a on Jurkat cells; alpha subunit of LFA-1
Protocol: (§1) Aliquots of 10⁶ Jurkat T-cells were incubated with serial dilutions of humanized and control antibodies in PBS-0.1% BSA-10 mM sodium azide for 45 min at 4° C. The cells were washed and then incubated in fluorescein-conjugated goat anti-human F(ab′)₂ (Organon Teknika, Westchester, Pa.) for 45 min at 4° C. Cells were washed and analysed on a FACScan (Becton Dickinson, Mountain View, Calif.). 8×10³ cells were acquired by list mode and gated by forward light scatter versus side light scatter, thereby excluding dead cells and debris.
(§2) To determine which CDR residues were involved in binding to human CD11a an alanine-scan (Cunningham et al., Science 244:1081 (1989)) was performed on the CDR residues of HuIgG1. Each mutant was tested for binding to CD11a on Jurkat cells. In the light chain only CDR-L3 contributes to binding.

[5] = target: T2, human CD11a; experiment: cell-based or functional assay
[6] = target: T2, human CD11a; experiment: saturation binding, 125I-antibody, human lymphocytes; Kd(app)
Protocol: (§3) Radiolabeled antibodies were prepared using Iodo-Gen (Pierce, Rockford, Ill.) according to the manufacturer's instructions. 50 μg of antibody and 1 mCi¹²⁵I (DuPont, Wilmington, Del.) were added to each tube and incubated for 15 min at 25° C. Radiolabeled proteins were purified from the remaining free ¹²⁵I using PD-10 columns (Pharmacia, Uppsala, Sweden) equilibrated in Hank's Balanced Salt Solution (HBSS, Life Technologies, Grand Island, N.Y.) containing 0.2% gelatin.
(§4) Antibody affinities were determined by saturation binding using either peripheral blood mononuclear cells (murine MHM24 and HuIgG1) or rhesus leukocytes (MHM23, RhIgG1). In each assay, a radiolabeled antibody was serially diluted in HBSS-0.2% gelatin in quadruplicate. Nonspecific binding was determined by the addition of 500 nM final concentration of homologous unlabeled antibody in duplicate through the serial dilution. Human lymphocytes or rhesus leukocytes were added to the plates in a volume of 170 μl per well. Plates were incubated for 2 hr at room temperature on an orbital plate shaker. After incubation, cells were harvested using a SKATRON™ cell harvester (Lier, Norway) and washed 10 times with PBS containing 0.25% gelatin and 0.1% sodium azide. Samples were then counted for 1 min in an LBK Wallac GammaMaster gamma counter (Gaithersburg, Md.). […]

[7] = target: T2, human CD11a; experiment: FACScan, Jurkat cells; remark: listed apart in the source
Protocol: as §1
Target sequence in this assay (P20701 26-1170): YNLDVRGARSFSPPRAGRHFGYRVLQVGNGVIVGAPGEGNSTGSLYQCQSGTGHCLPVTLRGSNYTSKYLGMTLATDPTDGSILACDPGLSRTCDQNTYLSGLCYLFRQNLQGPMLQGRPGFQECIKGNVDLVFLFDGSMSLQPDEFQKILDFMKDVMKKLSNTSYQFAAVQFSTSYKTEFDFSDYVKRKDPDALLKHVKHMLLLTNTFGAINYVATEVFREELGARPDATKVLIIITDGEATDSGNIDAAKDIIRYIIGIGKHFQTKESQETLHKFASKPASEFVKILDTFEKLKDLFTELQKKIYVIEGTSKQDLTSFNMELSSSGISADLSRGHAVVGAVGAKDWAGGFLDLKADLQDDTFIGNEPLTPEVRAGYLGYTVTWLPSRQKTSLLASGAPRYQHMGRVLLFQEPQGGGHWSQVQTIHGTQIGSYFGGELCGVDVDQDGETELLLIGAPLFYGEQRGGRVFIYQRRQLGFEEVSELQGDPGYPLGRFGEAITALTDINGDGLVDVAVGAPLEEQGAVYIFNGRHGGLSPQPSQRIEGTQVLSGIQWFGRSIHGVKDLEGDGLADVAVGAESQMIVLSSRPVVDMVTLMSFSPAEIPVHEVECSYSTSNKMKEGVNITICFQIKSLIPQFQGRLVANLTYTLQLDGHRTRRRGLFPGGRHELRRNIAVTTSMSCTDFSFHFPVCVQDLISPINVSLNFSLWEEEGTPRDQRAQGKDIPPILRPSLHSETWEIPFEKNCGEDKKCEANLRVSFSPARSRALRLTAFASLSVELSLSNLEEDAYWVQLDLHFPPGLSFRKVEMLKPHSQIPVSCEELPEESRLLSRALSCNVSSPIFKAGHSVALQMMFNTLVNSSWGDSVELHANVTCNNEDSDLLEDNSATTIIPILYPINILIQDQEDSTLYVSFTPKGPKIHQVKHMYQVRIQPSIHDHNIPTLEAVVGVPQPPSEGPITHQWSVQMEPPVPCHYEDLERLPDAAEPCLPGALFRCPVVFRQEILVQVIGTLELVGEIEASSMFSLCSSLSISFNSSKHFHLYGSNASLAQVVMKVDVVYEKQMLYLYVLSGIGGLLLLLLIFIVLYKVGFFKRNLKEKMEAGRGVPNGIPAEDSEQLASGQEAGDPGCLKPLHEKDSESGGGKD

[8] = target: T2, human CD11a; experiment: not stated (summary of the Example)
[9] = target: T2, human CD11a; experiment: saturation binding, human lymphocytes, donor 1; Kd(app)
Protocol: as §3, §4

[10] = target: T2, human CD11a; experiment: FACScan, Jurkat cells; remark: listed apart in the source
Protocol: as §1, §2

[11] = target: T2, human CD11a; experiment: cell-based or functional assay; remark: listed apart in the source
[12] = target: T2, human CD11a; experiment: saturation binding, human lymphocytes, donor 2; Kd(app)
Protocol: as §3, §4

[13] = target: T1, rhesus CD11a; experiment: rhesus PBL binding; remark: listed apart in the source
[14] = target: T1, rhesus CD11a; experiment: rhesus PBL binding; end of range assigned by the printed EC50s
[15] = target: T1, rhesus CD11a; experiment: cell-based or functional assay
[16] = target: T3, rhesus-human chimeric CD11a (human (I-domain mutated to rhesus), UniProt P20701 26-1170); experiment: cell-based or functional assay
T3 sequence (looked up): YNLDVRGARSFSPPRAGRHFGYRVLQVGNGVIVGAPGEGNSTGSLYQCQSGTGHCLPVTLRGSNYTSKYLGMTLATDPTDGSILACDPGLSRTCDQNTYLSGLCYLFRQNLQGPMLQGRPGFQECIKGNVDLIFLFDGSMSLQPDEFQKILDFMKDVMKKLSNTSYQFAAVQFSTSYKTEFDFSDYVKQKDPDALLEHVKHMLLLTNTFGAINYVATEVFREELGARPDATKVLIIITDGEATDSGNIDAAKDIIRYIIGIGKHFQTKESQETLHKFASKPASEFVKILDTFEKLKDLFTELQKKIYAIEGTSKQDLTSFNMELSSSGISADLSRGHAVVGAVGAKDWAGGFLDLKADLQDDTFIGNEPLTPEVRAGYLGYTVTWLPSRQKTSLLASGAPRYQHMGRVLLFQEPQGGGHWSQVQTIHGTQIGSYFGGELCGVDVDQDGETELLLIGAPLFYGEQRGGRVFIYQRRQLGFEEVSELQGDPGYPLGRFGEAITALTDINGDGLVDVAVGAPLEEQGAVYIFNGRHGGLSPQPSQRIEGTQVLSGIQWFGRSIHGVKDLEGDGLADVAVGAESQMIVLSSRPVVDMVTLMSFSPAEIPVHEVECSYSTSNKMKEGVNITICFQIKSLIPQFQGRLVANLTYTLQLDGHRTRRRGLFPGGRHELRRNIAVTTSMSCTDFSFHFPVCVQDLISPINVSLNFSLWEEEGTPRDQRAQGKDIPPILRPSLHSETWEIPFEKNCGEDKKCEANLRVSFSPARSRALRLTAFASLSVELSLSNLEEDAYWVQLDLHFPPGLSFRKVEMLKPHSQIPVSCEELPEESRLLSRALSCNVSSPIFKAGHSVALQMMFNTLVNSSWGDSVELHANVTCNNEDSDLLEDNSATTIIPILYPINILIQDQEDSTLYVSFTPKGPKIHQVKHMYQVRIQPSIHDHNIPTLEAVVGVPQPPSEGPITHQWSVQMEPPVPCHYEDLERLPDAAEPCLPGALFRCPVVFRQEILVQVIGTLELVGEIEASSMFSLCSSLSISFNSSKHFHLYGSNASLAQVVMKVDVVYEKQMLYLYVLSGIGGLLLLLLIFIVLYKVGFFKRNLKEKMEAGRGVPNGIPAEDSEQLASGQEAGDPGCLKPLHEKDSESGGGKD

[17] = target: T1, rhesus CD11a; experiment: saturation binding
Protocol: Antibody affinities were determined by saturation binding using either peripheral blood mononuclear cells (murine MHM24 and HuIgG1) or rhesus leukocytes (MHM23, RhIgG1). In each assay, a radiolabeled antibody was serially diluted in HBSS-0.2% gelatin in quadruplicate. Nonspecific binding was determined by the addition of 500 nM final concentration of homologous unlabeled antibody in duplicate through the serial dilution. Human lymphocytes or rhesus leukocytes were added to the plates in a volume of 170 μl per well. Plates were incubated for 2 hr at room temperature on an orbital plate shaker. After incubation, cells were harvested using a SKATRON™ cell harvester (Lier, Norway) and washed 10 times with PBS containing 0.25% gelatin and 0.1% sodium azide. Samples were then counted for 1 min in an LBK Wallac GammaMaster gamma counter (Gaithersburg, Md.). Data was transformed from counts per minute to nanomolarity and four-parameter curve-fitting of saturation plots (bound versus total) was then performed to determine Kd (app) values.

[18] = target: T1, rhesus CD11a; experiment: saturation binding, rhesus leukocytes, donor 3, with 1 mg/ml human IgG1; Kd(app)
Protocol: (§5) Leukocytes were purified from heparinized rhesus monkey peripheral blood collected from two individuals by Dextran sedimentation. Blood was diluted with an equal volume of 3% Dextran T500 (Pharmacia) in PBS and was allowed to sediment undisturbed at 25° C. for 30 min. After sedimentation, cells remaining in suspension were harvested and pelleted by centrifugation at 400×g for 5 min. Residual erythrocytes were removed by two cycles of hypotonic lysis using distilled water and 2×HBSS. After erythrocyte lysis, cells were washed in PBS and then resuspended in HBSS-0.2% gelatin.
as §4, with “After incubation, cells were harvested using a SKATRON™ cell harvester (Lier, Norway) and washed 10 times with PBS containing 0.25% gelatin and 0.1% sodium azide.” left out

[19] = target: T1, rhesus CD11a; experiment: saturation binding, rhesus leukocytes, donor 1; Kd(app)
Protocol: as §3
as §5, with “After erythrocyte lysis, cells were washed in PBS and then resuspended in HBSS-0.2% gelatin.” left out
Antibody affinities were determined by saturation binding using either peripheral blood mononuclear cells (murine MHM24 and HuIgG1) or rhesus leukocytes (MHM23, RhIgG1). […] Nonspecific binding was determined by the addition of 500 nM final concentration of homologous unlabeled antibody in duplicate through the serial dilution. […] Samples were then counted for 1 min in an LBK Wallac GammaMaster gamma counter (Gaithersburg, Md.). […]

[20] = target: T1, rhesus CD11a; experiment: cell-based or functional assay; remark: listed apart in the source
[21] = target: T1, rhesus CD11a; experiment: cell-based or functional assay; remark: listed apart in the source
[22] = target: T3, rhesus-human chimeric CD11a; experiment: cell-based or functional assay; remark: listed apart in the source

B1: humanized MHM24 IgG1 (antibody, V domains shown)
VH: EVQLVESGGGLVQPGGSLRLSCAASGYSFTGHWMNWVRQAPGKGLEWVGMIHPSDSETRYNQKFKDRFTISVDKSKNTLYLQMNSLRAEDTAVYYCARGIYFYGTTYFDYWGQGTLVTVSS
VL: DIQMTQSPSSLSASVGDRVTITCRASKTISKYLAWYQQKPGKAPKLLIYSGSTLQSGVPSRFSGSGSGTDFTLTISSLQPEDFATYYCQQHNEYPLTFGQGTKVEIKR
notes: F(ab)-8 VL and VH domains fused to human constant light and heavy (IgG1) chains; also called HuIgG1; huMHM24
- fold reduction in binding against human CD11a [1]: ~1000 fold
- Var.EC50/HuIgG1 EC50 [2]: 1 ratio
- EC50 [3]: 45.6 nM
- EC50 [4]: 0.042 nM
- IC50, blocking of cell adhesion, Jurkat: HuK [5]: 0.13 nM
- Kd [6]: 0.15 nM
- EC50 F(ab)/EC50 F(ab)-2 [7]: 0.004 ratio
- Kd [8]: 0.2 nM
- Kd [9]: 0.11 nM
- Var.EC50/HuIgG1 EC50 [10]: 1 ratio
- IC50, human mixed lymphocyte response [11]: 0.38 nM
- Kd [12]: 0.18 nM

B2: rhesus-binding MHM24 IgG1 (antibody, V domains shown)
VH: B1 VH with H52A, S54A, D55S, E57S
VL: B1 VL
notes: HuIgG1 mutant (H52 Ala, H53 Ala, H54 Ser, H56 Ser); human IgG1; also called RhIgG1; H2C12
- EC50 [13]: 0.19 nM
- Var.EC50/HuIgG1 EC50 [2]: 0.004 ratio
- fold improvement over EC50 of HuIgG1 for rhesus CD11a [14]: 240 to 415 fold
- fold weaker than EC50 of HuIgG1 for human CD11a [14]: 3 to 5 fold
- IC50, blocking of cell adhesion, RhLy: HuICAM [15]: 5.3 nM
- IC50, blocking of cell adhesion, RhLy: HuK [15]: 119 nM
- IC50, blocking of cell adhesion, Rh/HuCD11a: HuK [16]: 4.9 nM
- fold Kd against Kd of HuIgG1 for human CD11a [17]: ~26 fold
- Kd [18]: 2.8 nM and 2.7 nM
- Kd [19]: 3.9 nM
- IC50, rhesus mixed lymphocyte response [20]: 23.4 nM
- fold less efficacious than MHM23, RhLy: HuICAM adhesion [21]: 4 fold
- fold less efficacious than MHM23, RhLy: HuK adhesion [21]: 74 fold
- fold down from MHM23, Rh/HuCD11a-293: HuK adhesion [22]: 4 fold

B3: murine MHM24 (antibody, V domains shown)
VH: EVQLQQPGAELMRPGASVKLSCKASGYSFTGHWMNWVRQRPGQGLEWIGMIHPSDSETRLNQKFKDKATLTVDKSSSSAYMQLSSPTSEDSAVYYCARGIYFYGTTYFDYWGQGTTLTVSS
VL: DVQITQSPSYLAASPGETISINCRASKTISKYLAWYQEKPGKTNKLLIYSGSTLQSGIPSRFSGSGSGTDFTLTISSLEPEDFAMYYCQQHNEYPLTFGTGTKLELKR
notes: Murine anti-human CD11a monoclonal antibody; also called muMHM24; murMHM24
- fold reduction in binding against human CD11a [1]: ~1000 fold
- IC50, blocking of cell adhesion, Jurkat: HuK [5]: 0.09 nM
- Kd [6]: 0.15 nM
- Kd [9]: 0.16 nM
- Kd [12]: 0.13 nM
